# Measurements reported in publication PMC2756588.
# T1: Abp1, P15891
# T1 sequence (P15891 535-592, looked up): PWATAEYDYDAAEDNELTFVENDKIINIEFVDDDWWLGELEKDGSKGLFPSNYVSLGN
# T2: Bbc1, P47068
# T2 sequence (P47068 1-78, looked up): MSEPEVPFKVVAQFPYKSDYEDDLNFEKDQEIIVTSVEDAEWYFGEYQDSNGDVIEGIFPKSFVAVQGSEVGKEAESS
# T3: Boi1, P38041
# T3 sequence (P38041 1-86, looked up): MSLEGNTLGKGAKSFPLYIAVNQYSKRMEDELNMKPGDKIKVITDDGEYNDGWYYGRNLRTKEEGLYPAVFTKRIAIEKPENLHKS
# T4: Boi2, P39969
# T4 sequence (P39969 32-116, looked up): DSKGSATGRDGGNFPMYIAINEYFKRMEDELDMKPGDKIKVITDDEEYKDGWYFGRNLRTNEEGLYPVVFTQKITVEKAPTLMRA
# T5: Bud14, P27637
# T5 sequence (P27637 247-328, looked up): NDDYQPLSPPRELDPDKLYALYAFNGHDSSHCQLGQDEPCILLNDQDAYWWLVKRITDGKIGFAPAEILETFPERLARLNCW
# T6: Bzz1-1, P38822
# T6 sequence (P38822 478-572, looked up): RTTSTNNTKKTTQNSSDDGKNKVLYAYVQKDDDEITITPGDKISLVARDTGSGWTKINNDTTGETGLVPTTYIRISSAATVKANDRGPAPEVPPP
# T7: Bzz1-2, P38822
# T7 sequence (P38822 568-633, looked up): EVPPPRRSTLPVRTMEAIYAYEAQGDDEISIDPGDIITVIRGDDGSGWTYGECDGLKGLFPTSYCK
# T8: Cdc25, P04821
# T8 sequence (P04821 50-136, looked up): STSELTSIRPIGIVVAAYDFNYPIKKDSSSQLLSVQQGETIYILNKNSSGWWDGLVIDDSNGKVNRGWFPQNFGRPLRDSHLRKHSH
# T9: Cyk3, Q07533
# T9 sequence (Q07533 1-83, looked up): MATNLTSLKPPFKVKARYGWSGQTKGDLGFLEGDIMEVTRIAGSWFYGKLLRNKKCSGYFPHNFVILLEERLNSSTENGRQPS
# T10: Fus1, P11710
# T10 sequence (P11710 432-512, looked up): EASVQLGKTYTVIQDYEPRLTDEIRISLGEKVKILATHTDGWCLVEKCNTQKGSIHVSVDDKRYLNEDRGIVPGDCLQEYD
# T11: Hof1, Q05080
# T11 sequence (Q05080 590-669, looked up): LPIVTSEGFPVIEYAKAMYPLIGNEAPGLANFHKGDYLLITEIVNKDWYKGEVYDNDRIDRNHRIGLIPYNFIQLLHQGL
# T12: Hse1, P38753
# T12 sequence (P38753 208-285, looked up): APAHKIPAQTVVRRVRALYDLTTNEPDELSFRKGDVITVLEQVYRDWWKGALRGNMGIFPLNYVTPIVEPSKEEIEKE
# T13: Lsb1, P53281
# T13 sequence (P53281 45-122, looked up): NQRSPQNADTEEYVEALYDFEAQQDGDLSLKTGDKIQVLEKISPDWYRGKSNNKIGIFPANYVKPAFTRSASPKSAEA
# T14: Lsb3, P43603
# T14 sequence (P43603 385-451, looked up): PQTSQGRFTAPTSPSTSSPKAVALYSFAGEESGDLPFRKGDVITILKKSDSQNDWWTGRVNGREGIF
# T15: Lsb4, P32793
# T15 sequence (P32793 402-468, looked up): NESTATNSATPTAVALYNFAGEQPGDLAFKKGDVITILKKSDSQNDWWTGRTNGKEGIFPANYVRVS
# T16: Myo5, Q04439
# T16 sequence (Q04439 1072-1160, looked up): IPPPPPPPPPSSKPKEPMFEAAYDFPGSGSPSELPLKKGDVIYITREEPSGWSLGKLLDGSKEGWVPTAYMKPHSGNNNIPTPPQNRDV
# T17: Nbp2, Q12163
# T17 sequence (Q12163 103-180, looked up): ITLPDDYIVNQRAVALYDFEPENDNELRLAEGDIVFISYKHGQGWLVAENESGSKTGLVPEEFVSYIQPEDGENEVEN
# T18: Pex13, P80667
# T18 sequence (P80667 295-386, looked up): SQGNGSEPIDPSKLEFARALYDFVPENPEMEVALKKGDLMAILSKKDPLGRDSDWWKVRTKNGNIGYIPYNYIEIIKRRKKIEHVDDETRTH
# T19: Pin3, Q06449
# T19 sequence (Q06449 53-122, looked up): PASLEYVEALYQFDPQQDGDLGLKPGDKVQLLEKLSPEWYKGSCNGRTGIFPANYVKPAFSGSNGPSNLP
# T20: Sla1-2, P32790
# T20 sequence (P32790 60-140, looked up): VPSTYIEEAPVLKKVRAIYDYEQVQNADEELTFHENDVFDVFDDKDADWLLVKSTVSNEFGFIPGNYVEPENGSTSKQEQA
# T21: Sla1-3, P32790
# T21 sequence (P32790 344-424, looked up): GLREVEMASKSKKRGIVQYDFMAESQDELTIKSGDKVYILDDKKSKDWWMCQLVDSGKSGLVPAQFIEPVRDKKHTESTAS
# Tests used:
# Assay in all cases: SPOT array
# Abp1, P15891 = molecular target: T1, Abp1, P15891; conditions: median of control spots 935
# Bbc1, P47068 = molecular target: T2, Bbc1, P47068; conditions: median of control spots 796
# Bem1-1, P29366 = conditions: median of control spots 4282
# Chain of Bem1-1, P29366 (P29366 55-141): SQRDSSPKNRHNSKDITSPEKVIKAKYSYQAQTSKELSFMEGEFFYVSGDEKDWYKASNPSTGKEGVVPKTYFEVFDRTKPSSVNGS
# Bem1-2, P29366 = conditions: median of control spots 4347
# Chain of Bem1-2, P29366 (P29366 139-227): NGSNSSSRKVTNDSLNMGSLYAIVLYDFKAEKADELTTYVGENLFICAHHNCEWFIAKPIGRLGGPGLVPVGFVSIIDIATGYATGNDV
# Boi1, P38041 = molecular target: T3, Boi1, P38041; conditions: median of control spots 1162
# Boi2, P39969 = molecular target: T4, Boi2, P39969; conditions: median of control spots 1161
# Bud14, P27637 = molecular target: T5, Bud14, P27637; conditions: median of control spots 956
# Bzz1-1, P38822 = molecular target: T6, Bzz1-1, P38822; conditions: median of control spots 4446
# Bzz1-2, P38822 = molecular target: T7, Bzz1-2, P38822; conditions: median of control spots 4538
# Cdc25, P04821 = molecular target: T8, Cdc25, P04821; conditions: median of control spots 969
# Cyk3, Q07533 = molecular target: T9, Cyk3, Q07533; conditions: median of control spots 1451
# Fus1, P11710 = molecular target: T10, Fus1, P11710; conditions: median of control spots 1200
# GST = conditions: median of control spots 978
# Hof1, Q05080 = molecular target: T11, Hof1, Q05080; conditions: median of control spots 4086
# Hse1, P38753 = molecular target: T12, Hse1, P38753; conditions: median of control spots 1727
# Lsb1, P53281 = molecular target: T13, Lsb1, P53281; conditions: median of control spots 388
# Lsb3, P43603 = molecular target: T14, Lsb3, P43603; conditions: median of control spots 406
# Lsb4, P32793 = molecular target: T15, Lsb4, P32793; conditions: median of control spots 397
# Myo3, P36006 = conditions: median of control spots 468
# Myo5, Q04439 = molecular target: T16, Myo5, Q04439; conditions: median of control spots 471
# Nbp2, Q12163 = molecular target: T17, Nbp2, Q12163; conditions: median of control spots 357
# Pex13, P80667 = molecular target: T18, Pex13, P80667; conditions: median of control spots 1341
# Pin3, Q06449 = molecular target: T19, Pin3, Q06449; conditions: median of control spots 2171
# Rvs167, P39743 = conditions: median of control spots 2707
# Chain of Rvs167, P39743 (P39743 419-482): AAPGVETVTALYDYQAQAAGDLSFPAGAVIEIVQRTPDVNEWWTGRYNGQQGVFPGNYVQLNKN
# Sho1, P40073 = conditions: median of control spots 1148
# Chain of Sho1, P40073 (P40073 287-367): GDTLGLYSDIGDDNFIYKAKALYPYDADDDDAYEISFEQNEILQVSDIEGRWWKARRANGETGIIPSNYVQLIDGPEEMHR
# Sla1-2, P32790 = molecular target: T20, Sla1-2, P32790; conditions: median of control spots 712
# Sla1-3, P32790 = molecular target: T21, Sla1-3, P32790; conditions: median of control spots 5475
"SPOT intensity (Abp1, P15891)","SPOT intensity (Bbc1, P47068)","SPOT intensity (Bem1-1, P29366)","SPOT intensity (Bem1-2, P29366)","SPOT intensity (Boi1, P38041)","SPOT intensity (Boi2, P39969)","SPOT intensity (Bud14, P27637)","SPOT intensity (Bzz1-1, P38822)","SPOT intensity (Bzz1-2, P38822)","SPOT intensity (Cdc25, P04821)","SPOT intensity (Cyk3, Q07533)","SPOT intensity (Fus1, P11710)",SPOT intensity (GST),"SPOT intensity (Hof1, Q05080)","SPOT intensity (Hse1, P38753)","SPOT intensity (Lsb1, P53281)","SPOT intensity (Lsb3, P43603)","SPOT intensity (Lsb4, P32793)","SPOT intensity (Myo3, P36006)","SPOT intensity (Myo5, Q04439)",Binder,further results
22,19,3,15,3,0,10,1,5,115,0,37,0,25,43,2,0,0,0,0,FFRRSELYLPNSSKA,"SPOT intensity (Nbp2, Q12163): 14; SPOT intensity (Pex13, P80667): 10; SPOT intensity (Pin3, Q06449): 1; SPOT intensity (Rvs167, P39743): 5; SPOT intensity (Sho1, P40073): 62; SPOT intensity (Sla1-2, P32790): 0; SPOT intensity (Sla1-3, P32790): 53"
101,273,0,15,13,17,26,0,15,156,4,19,9,20,54,13,0,3,5,1,YVRRRPRVRLEPLLS,"SPOT intensity (Nbp2, Q12163): 16; SPOT intensity (Pex13, P80667): 2; SPOT intensity (Pin3, Q06449): 2; SPOT intensity (Rvs167, P39743): 0; SPOT intensity (Sho1, P40073): 102; SPOT intensity (Sla1-2, P32790): 3; SPOT intensity (Sla1-3, P32790): 44"
28,1,0,0,0,1,3,0,4,9,0,0,0,0,9,4,4,27,10,6,LLGRKRPVMERVVDI,"SPOT intensity (Nbp2, Q12163): 0; SPOT intensity (Pex13, P80667): 110; SPOT intensity (Pin3, Q06449): 61; SPOT intensity (Rvs167, P39743): 5; SPOT intensity (Sho1, P40073): 74; SPOT intensity (Sla1-2, P32790): 5; SPOT intensity (Sla1-3, P32790): 4"
37,140,0,10,16,0,15,0,4,236,3,15,0,15,15,7,2,2,8,0,SRYRRPLTLLLLKPF,"SPOT intensity (Nbp2, Q12163): 28; SPOT intensity (Pex13, P80667): 16; SPOT intensity (Pin3, Q06449): 2; SPOT intensity (Rvs167, P39743): 7; SPOT intensity (Sho1, P40073): 78; SPOT intensity (Sla1-2, P32790): 1; SPOT intensity (Sla1-3, P32790): 15"
92,46,2,1,0,0,6,2,2,54,0,0,4,2,3,216,3,8,4,1,KNPRRQLQIPRQQPS,"SPOT intensity (Nbp2, Q12163): 0; SPOT intensity (Pex13, P80667): 3; SPOT intensity (Pin3, Q06449): 3; SPOT intensity (Rvs167, P39743): 2; SPOT intensity (Sho1, P40073): 99; SPOT intensity (Sla1-2, P32790): 0; SPOT intensity (Sla1-3, P32790): 3"
18,184,0,108,7,2,13,0,13,44,0,14,1,52,43,139,2,2,0,0,LLRRTIPKRPFYHVL,"SPOT intensity (Nbp2, Q12163): 100; SPOT intensity (Pex13, P80667): 12; SPOT intensity (Pin3, Q06449): 0; SPOT intensity (Rvs167, P39743): 31; SPOT intensity (Sho1, P40073): 26; SPOT intensity (Sla1-2, P32790): 0; SPOT intensity (Sla1-3, P32790): 245"
